# Molecular target: Lys^B29Atto655-insulin aspart (human) (UniProt P01308)
# Experiment: single-molecule TIRF microscopy; 10 nM labelled insulin in solution binding to labelled insulin nonspecifically immobilised on a PLL-PEG passivated surface; no Zn^2+, no phenol; 10 mM Na2HPO4, 10 mM NaH2PO4, 5 mM NaCl, pH 7.32, room temperature; seven-state HMM, rate constants of each step between monomer and hexamer (kij: state i to state j)
substance,measurement,value
Lys^B29Atto655-insulin aspart (from UniProt P01308 90-110; P01308 25-54) (natural protein),"k24 (association rate constant, dimer to tetramer)",2e+08 M⁻¹ s⁻¹
same,"k31 (dissociation rate constant, trimer to monomer)",0.062 s⁻¹

# — paper PMC9932072
